± gives the standard error. This sample holds only a part of the variants without activity.
B1: glmS ribozyme (parent)
chain: AUAAAAGCGCCAGAACUACAGAAAUGUAGUUGACGAGGAGGAGGUUUAUCGAAUUUUCGGCGGAUGCCUCCAAA

Experiments:
Details in all cases: with glucosamine-6-phosphate
[1] = variants of: B1; test: self-cleavage kobs at 40 uM GlcN6P; higher = faster cleavage; RNA array
Summary of the method: (§1)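 Barcoded glmS ribozyme variants on sequenced MiSeq chips were transcribed in situ by E. coli RNA polymerase and tracked through a hybridised Cy3 probe at 37 °C. Glucosamine-6-phosphate (40 μM to 10 mM) in HEPES/KCl/Mg(OAc)2 buffer was flowed in, and tiles were imaged over ~14 h. Signals were normalised to baseline and to non-cleaving reference variants; per-tile medians were fit to one- or two-exponential decays to give kobs. kcat and KM came from weighted Michaelis–Menten fits across concentrations.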

[2] = variants of: B1; test: self-cleavage kobs at 160 uM GlcN6P; higher = faster cleavage; RNA array
Summary of the method: as §1

[3] = variants of: B1; test: self-cleavage kobs at 640 uM GlcN6P; higher = faster cleavage; RNA array
Summary of the method: as §1

[4] = variants of: B1; test: self-cleavage kobs at 2500 uM GlcN6P; higher = faster cleavage; RNA array
Summary of the method: as §1

[5] = variants of: B1; test: self-cleavage kobs at 10000 uM GlcN6P; higher = faster cleavage; RNA array
Summary of the method: as §1

| Variant | self-cleavage kobs at 40 uM GlcN6P [1] | self-cleavage kobs at 160 uM GlcN6P [2] | self-cleavage kobs at 640 uM GlcN6P [3] | self-cleavage kobs at 2500 uM GlcN6P [4] | self-cleavage kobs at 10000 uM GlcN6P [5] |
| --- | --- | --- | --- | --- | --- |
| A15U G44C U56C | < 1e-05 s⁻¹ | < 1e-05 s⁻¹ | < 1e-05 s⁻¹ | < 1e-05 s⁻¹ | < 1e-05 s⁻¹ |
| A15C A53U G62A | < 1e-05 s⁻¹ |  |  | < 1e-05 s⁻¹ | < 1e-05 s⁻¹ |
| A15C A33U C61A | < 1e-05 s⁻¹ |  |  |  |  |
| A14C C67U C70U | < 1e-05 s⁻¹ |  |  |  | 6.08e-05 ± 1.4e-05 s⁻¹ |
| A14G C16A U54G | 0.000211 ± 4.8e-05 s⁻¹ |  |  |  | 0.00361 ± 0.00067 s⁻¹ |
| A15C G59U | < 1e-05 s⁻¹ | < 1e-05 s⁻¹ | < 1e-05 s⁻¹ |  |  |
| A15C G35U | < 1e-05 s⁻¹ | < 1e-05 s⁻¹ | < 1e-05 s⁻¹ | < 1e-05 s⁻¹ |  |
| A14U G43A U55A C61A | < 1e-05 s⁻¹ |  |  |  | < 1e-05 s⁻¹ |
| A15G C50A | < 1e-05 s⁻¹ |  |  |  | 3.83e-05 ± 1.4e-05 s⁻¹ |
| G13U C16G A64U C67G | < 1e-05 s⁻¹ |  |  |  | < 1e-05 s⁻¹ |
| A14C G41A C50G G59U | < 1e-05 s⁻¹ |  |  |  |  |
| A14G A15G G66U | 0.0002 ± 4.3e-05 s⁻¹ |  |  | 0.00252 ± 0.0011 s⁻¹ | 0.0089 ± 0.0018 s⁻¹ |
| A14C G35U G43C | < 1e-05 s⁻¹ |  |  |  |  |
| A15C C71A | 3.98e-05 ± 9.4e-06 s⁻¹ | 8.22e-05 ± 3.4e-05 s⁻¹ | 0.000136 ± 5.9e-05 s⁻¹ | 0.000291 ± 7.5e-05 s⁻¹ | 0.00151 ± 0.00019 s⁻¹ |
| A14G U54G | 0.00166 ± 0.00021 s⁻¹ | 0.0021 ± 0.00047 s⁻¹ | 0.0114 ± 0.003 s⁻¹ |  | 0.023 ± 0.0048 s⁻¹ |
| C16G U31C G37C A53G | < 1e-05 s⁻¹ |  |  |  |  |
| A14U A52C | < 1e-05 s⁻¹ | < 1e-05 s⁻¹ |  |  |  |
| A14G G62A | < 1e-05 s⁻¹ |  |  |  |  |
| A14C U54A | 0.00014 ± 2.7e-05 s⁻¹ |  | 0.00123 ± 0.00021 s⁻¹ | 0.0023 ± 0.0005 s⁻¹ | 0.00985 ± 0.0024 s⁻¹ |
| A14U G37A C50U G63C | < 1e-05 s⁻¹ |  |  |  |  |
| A14C C16G C50G | 8.94e-05 ± 3.4e-05 s⁻¹ |  |  |  |  |
| A14G U30G | 0.001 ± 0.00014 s⁻¹ | 0.00212 ± 0.00046 s⁻¹ | 0.00706 ± 0.0011 s⁻¹ | 0.0179 ± 0.0054 s⁻¹ | 0.0807 ± 0.027 s⁻¹ |
| A15U G29U C71G | 6.19e-05 ± 2.4e-05 s⁻¹ |  |  |  | 0.000144 ± 2.7e-05 s⁻¹ |
| A15U A64C | < 1e-05 s⁻¹ | < 1e-05 s⁻¹ |  |  |  |
| G13U C58A | 4.24e-05 ± 1.8e-05 s⁻¹ | 7.4e-05 ± 1.6e-05 s⁻¹ | 0.000326 ± 5.2e-05 s⁻¹ | 0.000524 ± 8.1e-05 s⁻¹ | 0.00176 ± 0.00026 s⁻¹ |

From the supplement of paper PMC7125110
